Assay results from patent US20110059555, “BRANCHED AND MULTI-CHAIN NUCLEIC ACID SWITCHES FOR SENSING AND SCREENING” (Syracuse University, published 2011).

B1: M2 tethered switch (mixed)
DNA: GCATGCCTCCGCATGCTCACAGCACGACTCAGATGG
mixed: CCATCTGAGTCGTGCACGCUAGCGGUGGCUAGC
modifications: DNA strand / DNA-RNA chimera (UAGCGGUGGCUAGC is RNA)
B2: M3 tethered switch (mixed)
DNA: GCTATCCACCGATAGCTCACAGCACGACTCAGATGG
mixed: B1 mixed
modifications: DNA strand / DNA-RNA chimera (UAGCGGUGGCUAGC is RNA)

Legend:
[1] = molecular target: NCp7 (nucleocapsid protein, Zn2.NCp7(1-55)) (HIV-1) (UniProt P35962); conditions: virtually no change in Kd
[2] = molecular target: NCp7 (nucleocapsid protein, Zn2.NCp7(1-55)) (HIV-1) (UniProt P35962); conditions: Trp assay; virtually identical Kd
[3] = molecular target: T1, NCp7 (nucleocapsid protein, Zn2.NCp7(1-55)) (HIV-1, UniProt P35962 SEQ:1-55); experiment: Trp assay; K2 similar to that of SL3 RNA; conditions: label: 5'-dabcyl, T-FAM at 17 of the all-DNA strand; tethered duplex with hairpins (O-form favoured)
T1 chain: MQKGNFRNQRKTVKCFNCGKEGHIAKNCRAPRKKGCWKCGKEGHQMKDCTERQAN

[4] = molecular target: T1, NCp7 (nucleocapsid protein, …); experiment: equilibration with NCp7 within a minute at 10 nM switch; conditions: label: 5'-dabcyl, T-FAM at 17 of the all-DNA strand; tethered duplex switch

Molecule | binding signal (fold Kd vs SL3) [1] | also measured
SL3 A315-U322 | 1 | 
SL3 16mer |  | binding signal (fold Kd vs SL3 20mer) [2]: 1
SL3 G316-C321 | 1 | 
SL3 C315-G | 1 | 
B1 |  | binding signal [3]: ~1 fold K2 vs SL3 RNA
B2 |  | binding result [4]: binds
